Test results published in article PMC3852661, “Structural basis of SUFU–GLI interaction in human Hedgehog signalling regulation” (Acta Crystallographica Section D: Biological Crystallography, 2013).
Where no end group is shown, it is not given here. The star is where a group is joined. 5FAM = O=C1OC2(c3ccc(O)cc3Oc3cc(O)ccc32)c2ccc(C(=O)*)cc21

T1: MBP_(A216H_K220H)-SUFU-Δ_(W61D_L62S_G63F_P453A_Δ454–456_K457A) (human, UniProt Q9UMX1 32-278; Q9UMX1 361-483, W61D | L62S | G63F | P453A | Δ454–456 | K457A)
T1 construct: human SUFU, residues 32-278, WLG61-63 mutated to DSF; heptamer that replaces amino acids 279-360 (the IDR), as in MBP-SUFU-Δ; human SUFU, residues 361-483, a flexible loop shortened; Derived from MBP-SUFU-Δ; residues 216 and 220 of the MBP moiety mutated to histidine; crystallised with zinc acetate and maltose; source: E. coli JM109 (DE3), purified (HisTrap, SEC); not shown: MBP (A216H, K220H), …
T1 sequence: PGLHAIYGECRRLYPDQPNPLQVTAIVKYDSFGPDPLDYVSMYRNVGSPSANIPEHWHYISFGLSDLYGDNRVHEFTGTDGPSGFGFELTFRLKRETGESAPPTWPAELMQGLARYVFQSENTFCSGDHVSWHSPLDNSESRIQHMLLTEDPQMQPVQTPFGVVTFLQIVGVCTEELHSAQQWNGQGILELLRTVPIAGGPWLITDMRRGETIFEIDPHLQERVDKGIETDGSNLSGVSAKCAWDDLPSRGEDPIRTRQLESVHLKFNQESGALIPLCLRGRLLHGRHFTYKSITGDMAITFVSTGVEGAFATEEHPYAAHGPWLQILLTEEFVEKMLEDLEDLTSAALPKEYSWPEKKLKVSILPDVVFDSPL

B1: GLI1p (peptide, UniProt P08151 115-131, looked up)
peptide: TSPGGSYGHLSIGTMSP
notes: human GLI1, residues 115-131, holds the SYGH motif; also called human GLI1-derived peptide; source: synthetic peptide (Dr W. Mawby, University of Bristol)
B2: FAM-GLI1p (peptide, UniProt P08151 115-131, looked up)
peptide: 5FAM-TSPGGSYGHLSIGTMSP
notes: human GLI1, residues 115-131; also called 5-FAM-labelled peptide; FAM-labelled GLI1p peptide; source: synthetic peptide (Pepceuticals Ltd)
B3: MBP-SUFU-Δ (domain or fragment, human)
chain: PGLHAIYGECRRLYPDQPNPLQVTAIVKYWLGGPDPLDYVSMYRNVGSPSANIPEHWHYISFGLSDLYGDNRVHEFTGTDGPSGFGFELTFRLKRETGESAPPTWPAELMQGLARYVFQSENTFCSGDHVSWHSPLDNSESRIQHMLLTEDPQMQPVQTPFGVVTFLQIVGVCTEELHSAQQWNGQGILELLRTVPIAGGPWLITDMRRGETIFEIDPHLQERVDKGIETDGSNLSGVSAKCAWDDLPSRGEDPIRTRQLESVHLKFNQESGALIPLCLRGRLLHGRHFTYKSITGDMAITFVSTGVEGAFATEEHPYAAHGPWLQILLTEEFVEKMLEDLEDLTSPEEFKLPKEYSWPEKKLKVSILPDVVFDSPL
notes: human SUFU, residues 32-278; heptamer that replaces amino acids 279-360 (the IDR); human SUFU, residues 361-483; Same frame as MBP-SUFU-FL (three-alanine linker after MBP); source: E. coli JM109 (DE3), purified (HisTrap, SEC); not shown: MBP, N-terminal, kept
B4: MBP-SUFU-FL (domain or fragment, human, UniProt Q9UMX1 32-483, looked up)
chain: PGLHAIYGECRRLYPDQPNPLQVTAIVKYWLGGPDPLDYVSMYRNVGSPSANIPEHWHYISFGLSDLYGDNRVHEFTGTDGPSGFGFELTFRLKRETGESAPPTWPAELMQGLARYVFQSENTFCSGDHVSWHSPLDNSESRIQHMLLTEDPQMQPVQTPFGVVTFLQIVGVCTEELHSAQQWNGQGILELLRTVPIAGGPWLITDMRRGETIFEIDPHLQERVDKGIETDGSNLSGVSAKCAWDDLSRPPEDDEDSRSICIGTQPRRLSGKDTEQIRETLRRGLEINSKPVLPPINPQRQNGLAHDRAPSRKDSLESDSSTAIIPHELIRTRQLESVHLKFNQESGALIPLCLRGRLLHGRHFTYKSITGDMAITFVSTGVEGAFATEEHPYAAHGPWLQILLTEEFVEKMLEDLEDLTSPEEFKLPKEYSWPEKKLKVSILPDVVFDSPL
notes: human SUFU (Suppressor of fused), residues 32-483, called essentially full length; MBP is joined to SUFU by a three-alanine linker; vector pLJMBP4c (Monné et al., 2008); also called SUFU_(32–483); source: E. coli JM109 (DE3), purified (HisTrap, SEC); not shown: MBP, N-terminal, kept

Tests used:
Settings in all cases: both partners purified
[1] = biological target: T1, MBP_(A216H_K220H)-SUFU-Δ_(W61D_L62S_G63F …); test: crystal structure; co-crystals of the MBP-SUFU-Δ variant with zinc acetate (1:1) and GLI1p or GLI3p (1:4); hanging drop, 4°C, PEG 3350, sodium formate
MBP-SUFU-FL [2] = biological target: B4; test: MST; 50 nM FAM-GLI1p, MBP-SUFU constructs titrated (14.2–29 070 and 54–110 500 nM); 50 mM Tris–HCl pH 7.6, 150 mM NaCl, 10 mM MgCl2, 0.05% Tween-20; three independent measurements
MBP-SUFU-FL [3] = biological target: B4; test: HDX-MS; MBP-SUFU-FL with a 5.5-fold excess of GLI3p, incubated 1 h; exchange 300, 600 and 1800 s at 4°C; 50 mM Na HEPES pH 7.0, 50 mM NaCl, 5 mM β-mercaptoethanol, 1.5 mM maltose
GLI1p = biological target: B1; test: thermal stability assay (SYPRO Orange); 2.2 µM MBP-SUFU protein with 44 µM peptide; 50 mM Na HEPES pH 7.0, 50 mM NaCl, 5 mM β-mercaptoethanol; heated from 20 to 90°C; triplicate

Binder | binding result [1] | Tm shift on addition of GLI1p (GLI1p) [°C] | further results
B1 | binds | – | –
B2 | – | – | binding result (MBP-SUFU-FL [2]): binds
SSASGSYGHLSASAISP (peptide, UniProt P10071 328-344, looked up, human GLI3, residues 328-344) [GLI3p] | binds | – | binding result (MBP-SUFU-FL [3]): binds
B3 | – | 3.6 | –
B4 | – | 4 | –
